The subject of assay [1] is P. acnes RON strain. The assay is described as follows: Adhesion assay, biotinylated P. acnes binding to keratinocytes (NHDK). The assay is classed as cell-based, Propionibacterium acnes. The following applies: bacteria pretreated 0.87 to 7 μM, 1 h at 37° C. The method, then: The bacterial suspension was adjusted at 600 nm to the desired concentration, pretreated with peptides Fg1 and Fg2 at the final concentration ranging from 0.87 to 7 μM for 1 h at 37° C. and deposited on the previously saturated cells with a solution of PBS SVF 2% for 2 h. After incubation for 1 h at 37° C., unbound bacteria are removed by 3 washes with PBS and fixed bacteria are detected by a streptavidin-peroxidase solution of 0.5 μg/ml for 30 min.
Whole P. acnes bacteria are labelled by biotinylation, pre-treated or not with the peptides and contacted with the various cell lines. After removal of the unfixed bacteria, the adhesion activity was measured spectrophotometrically by using the streptavidin-peroxidase conjugate and a chromogenic substrate.
The ability of P. acnes strains 6919, RON and PIE was tested at 3 concentrations to adhere to various cells lines. It has been shown that the strains of P. acnes tested bound to the three kind of cell lines tested (keratinocytes, monocytes and fibroblast) with a maximum adhesion strength found for keratinocytes (FIG. 11). Knowing that P. acnes is able to recognize fibrinogen, it was used human and bovine whole fibrinogen to compete the interaction between the bacteria and the target cell. […] Then, the ability Fg1 to inhibit the adhesion of bacteria and RON PIE was evaluated on the 3 main types cell. […]

For assay [2], the system named is keratinocytes and fibroblasts. The assay can be described thus: IL-8 production by cells stimulated with P. acnes, overall statement. The following applies: the 3 bacterial tested strains. The assay is classed as cell-based, human. The method, then: For experiences of stimulation with P. acnes, cells were incubated with the P. acnes suspension adjusted at the appropriate concentration, pre-treated for 1 h at 37° C. or not with fibrinogen recombinant peptides Fg1 and Fg2 at the concentrations 0.87, 1.75, 3.5 or 7 μM for the desired period of time at 37° C. in 5% CO2.
Human IL-1ß, IL-8, IL-12, hBD-2, and TNF-α protein concentration was measured in the supernatants of stimulated cells using various ELISA Set kits (Ready-Set-Go kit from eBioscience for acne experiments, and for psoriasis experiments the Duo set IL-8 kit from R&D Systems and the BD-2 Human Development (hBD-2) from Peprotech) according to the manufacturer's instructions. We used serial dilutions of recombinant human IL-1ß, IL-8, IL-12 and TNF-α for standard curve. The optical density was determined at 450 nm at a wavelength correction of 540 nm.
To assess the efficacy of Fg1 recombinant peptide, the production of O2^∘− and H2O2 by HaCaT cells NHDK, THP-1, MRC5 and HDF stimulated by pretreated P. acnes strains 6919, RON and PIE was measured. The amount of ROS produced was compared to that produced by the stimulated cells with untreated bacteria. Production baseline was obtained by measuring ROS on unstimulated cells. The production of IL-1ß, IL-8, IL-12 and TNF-α was also measured in all conditions cited above. […]

Assay [3] concerns NHDK cells. The assay is described as follows: H2O2 production by keratinocytes stimulated by lipoteichoic acid (LTA). The following applies: NHDK pre-treated 24 h with 1.75 to 7 μM, then LTA 10 μg/ml. The class given is cell-based, human. The method, then: FIG. 18: Dose-dependent inhibition of H2O2 production by keratinocyte pre-treated by small Fg1-generated peptides and stimulated by lipoteichoic acid (LTA). NHDK cell were incubated for 24 h with recombinant peptide Fg1 (light gray bar) and Fg2 (dark gray bar) at concentrations ranging from 1.75 to 7 μM. Measurement of hydrogen peroxide production was realized by spectrofluorometry as described in Materials and Methods. Controls experiments were done with unstimulated NHDK cell (white bar) and HDF stimulated with LTA at 10 μg/ml (black bar). Data are means±S.D. of three separate experiments. Statistical significance is indicated by * (P<0.05), ** (P<0.01), *** (P<0.001), and **** (P<0.0001), respectively. […]
All cells lines (5·10^4 to 10^5 cells/well) were seeded in 96-well plates (Corning Costar, Brumath, France) and treated as previously described. After stimulation, cells were washed three times in PBS and incubated with 100 μl per wells of 5 μM DHE (for determination of O2^●−) or 5 μM H2-DCFDA (for determination of H2O2) for 30 min as described previously and fluorescence intensity was recorded every hour over a period of 5 h. Fluorescence excitation/emission maxima were for DHE: 480/610 nm and for H2-DCFDA: 507/525 nm. At the end of the experiment, the number of adherent cells was evaluated by the crystal violet assay as described below. […]

The source of these data is patent publication US10323078B2, “Isolated peptides and fragments thereof from fibrinogen for use as drugs, particularly in skin inflammatory diseases” (Universite Paris Descartes, priority 2015, dated 2019).

B1: MKRMVSWSFHKLKTMKHLLLLLLCVFLVKSQGVNDNEEGFFSARGHRPLDKKREEAPSLRPAPPPISGGGYRARPAKAAATQKKVERKAPDAGGCLHADPDLGVLC (protein)
chain: MKRMVSWSFHKLKTMKHLLLLLLCVFLVKSQGVNDNEEGFFSARGHRPLDKKREEAPSLRPAPPPISGGGRARPAKAAATQKKVERKAPDAGGCLHADPDLGVLCMKRMVSWSFHKLKTMKHLLLLLLCVFLVKSQGVNDNEEGFFSARGHRPLDKKREEAPSLRPAPPPISGGGYRARPAKAAATQKKVERKAPDAGGCLHADPDLGVLC
modifications: GST fusion; fragment Fg1
notes: fragment of Bß chain of human fibrinogen having 106 amino acids; recombinant GST-fused peptide expressed in E. coli
As to B1, the “Inhibition of adhesion of P. acnes RON strain” value in assay [1] was “inhibits the adhesion of RON strain in a dose-dependent manner”. Further, the “Decrease of the production of IL-8” value in assay [2] is listed as “dose-response effect on the decrease of the production of IL-8”. Moreover, in assay [3], the “Decrease of H2O2 production by LTA-stimulated cells” value is recorded as “significantly decreases production of H2O2”.
